Test results taken from US10005846 (LIFEARC, dated 2018).

T1: human transglutaminase type 2 (TG2) (human, UniProt P21980 1-687)
T1 sequence: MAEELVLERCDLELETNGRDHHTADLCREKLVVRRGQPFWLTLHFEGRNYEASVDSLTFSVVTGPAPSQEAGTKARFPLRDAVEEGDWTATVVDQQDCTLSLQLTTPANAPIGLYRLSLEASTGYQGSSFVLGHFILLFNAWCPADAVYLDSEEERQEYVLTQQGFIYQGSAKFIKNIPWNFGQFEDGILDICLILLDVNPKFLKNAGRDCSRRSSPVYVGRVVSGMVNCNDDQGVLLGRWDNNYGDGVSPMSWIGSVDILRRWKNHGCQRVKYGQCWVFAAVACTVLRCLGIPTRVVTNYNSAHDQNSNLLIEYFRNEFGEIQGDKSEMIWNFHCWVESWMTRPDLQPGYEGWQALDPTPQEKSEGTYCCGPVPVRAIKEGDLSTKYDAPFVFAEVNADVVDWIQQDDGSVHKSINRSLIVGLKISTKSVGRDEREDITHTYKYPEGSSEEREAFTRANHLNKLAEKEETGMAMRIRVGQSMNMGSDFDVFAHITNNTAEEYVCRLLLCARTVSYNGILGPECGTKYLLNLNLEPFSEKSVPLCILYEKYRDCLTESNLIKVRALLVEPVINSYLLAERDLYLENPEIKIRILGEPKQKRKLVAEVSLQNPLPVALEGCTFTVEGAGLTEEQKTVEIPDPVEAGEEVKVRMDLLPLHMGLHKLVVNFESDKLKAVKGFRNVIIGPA

T2: rat TG2 (rat, UniProt Q9WVJ6 1-686, limits assumed)
T2 sequence: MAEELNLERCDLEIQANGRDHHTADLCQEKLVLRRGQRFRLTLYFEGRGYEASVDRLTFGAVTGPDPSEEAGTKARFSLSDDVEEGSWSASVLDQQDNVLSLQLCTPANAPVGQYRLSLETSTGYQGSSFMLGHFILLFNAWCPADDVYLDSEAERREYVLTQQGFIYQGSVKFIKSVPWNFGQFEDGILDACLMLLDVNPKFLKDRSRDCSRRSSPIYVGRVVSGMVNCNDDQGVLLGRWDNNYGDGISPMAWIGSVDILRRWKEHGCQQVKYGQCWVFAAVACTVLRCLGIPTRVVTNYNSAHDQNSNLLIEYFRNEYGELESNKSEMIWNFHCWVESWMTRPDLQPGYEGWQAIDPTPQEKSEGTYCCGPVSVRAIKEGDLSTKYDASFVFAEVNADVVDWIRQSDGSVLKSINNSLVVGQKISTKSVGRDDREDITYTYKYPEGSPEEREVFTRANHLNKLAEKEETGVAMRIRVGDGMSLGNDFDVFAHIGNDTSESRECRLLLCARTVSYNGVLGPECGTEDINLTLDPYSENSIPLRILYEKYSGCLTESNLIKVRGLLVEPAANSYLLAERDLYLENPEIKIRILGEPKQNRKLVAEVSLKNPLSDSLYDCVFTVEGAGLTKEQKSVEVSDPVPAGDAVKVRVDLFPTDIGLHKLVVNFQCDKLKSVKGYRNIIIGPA

T3: TG13
T3 construct: also called Factor XIIIa
T3 chain: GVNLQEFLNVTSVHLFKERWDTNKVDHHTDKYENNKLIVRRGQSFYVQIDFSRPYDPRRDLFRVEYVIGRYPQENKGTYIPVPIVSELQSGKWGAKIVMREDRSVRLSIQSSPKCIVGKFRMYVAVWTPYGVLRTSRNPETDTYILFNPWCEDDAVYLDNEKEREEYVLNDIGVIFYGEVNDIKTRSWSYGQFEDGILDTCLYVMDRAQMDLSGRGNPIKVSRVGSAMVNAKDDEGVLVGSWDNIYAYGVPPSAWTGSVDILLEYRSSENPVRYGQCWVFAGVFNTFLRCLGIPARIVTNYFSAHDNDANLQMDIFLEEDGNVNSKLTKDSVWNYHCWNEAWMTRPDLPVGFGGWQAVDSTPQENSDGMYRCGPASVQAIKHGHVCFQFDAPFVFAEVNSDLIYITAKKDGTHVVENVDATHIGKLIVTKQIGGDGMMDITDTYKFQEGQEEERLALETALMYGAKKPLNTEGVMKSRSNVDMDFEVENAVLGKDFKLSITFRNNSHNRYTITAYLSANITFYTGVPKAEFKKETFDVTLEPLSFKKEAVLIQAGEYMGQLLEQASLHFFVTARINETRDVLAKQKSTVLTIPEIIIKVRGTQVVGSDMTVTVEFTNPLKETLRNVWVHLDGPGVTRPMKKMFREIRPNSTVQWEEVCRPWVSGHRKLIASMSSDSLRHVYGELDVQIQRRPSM


Experiments:
[1] = target: T1, human transglutaminase type 2 (TG2); assay: cell-based or functional assay
[2] = target: T2, rat TG2; assay: western blot and ELISA
[3] = target: T3, TG13; assay: ELISA, purified IgG at 0.1 ug/ml, plates coated with 100 ng of each TG [panel B]
Procedure: Conditioned medium or purified IgG were tested for reactivity to transglutaminase family members. The ability of each to bind to each transglutaminase (TG1, TG2, TG3, TG5, TG7 and Factor XIIIa; all Zedira) was determined using a plate binding assay. Microtiter plates (Costar, Cambridge, UK) were coated with recombinant TG (Zedira, Darmstadt, Germany) in 50 μl of 0.1 M bicarbonate/carbonate buffer (pH 9.6) overnight at 4° C. Plates were blocked for 2 h at 37° C. with 200 μl PBS containing 3% w/v BSA. Plates were washed three times with PBS containing 0.05% Tween 20 (washing buffer) and 100 μl of diluted conditioned medium (dilution 1:5 to 1:20) or purified anti-TG2 catalytic core mAbs was added. Plates were incubated for a further 1 h at room temperature. The washing step was repeated and anti-mouse gamma chain-horseradish peroxidase (1:5000) in PBS containing 0.05% Tween 20 (v:v) and 1% BSA (w:v) (Sigma, Poole UK) was added for 1 h. […] The reaction was stopped by adding 25 μl of 0.1 M H_2SO_4 and the absorbance at 450 nm was determined.

IC50 of enzymatic inhibition, dansylated lysine incorporation into N,N-dimethylated casein [continued), panel E] [1] [nM]	binding result [2]	binding result [3]	Binder
829	–	–	cDH001 chimeric antibody (murine DH2 variable regions) (antibody, human IgG1, V domains shown) VH: not shown VL: QIVLTQSPAIMSASPGEKVTMTCSASSSVSYMYWYQQKPGSSPRLLIYDTSNLASGVPVRFSGSGSGTSYSLTISRMEAEDAATFYCQQWSSSPLTFGAGTKLELK
–	binds	no binding (tested: 0.1 ug/ml)	DC1 murine monoclonal antibody (antibody, V domains shown, Mouse hybridoma IgG; heavy chain amplified with primer MHCG1, kappa light chain; also called mDC001) VH: EVQLVESGGGLVKPGGSLKLSCAASGFTLSTHAMSWVRQTPEKRLEWVATISSGGRSTYYPDSVKGRFTISRDNVKNTLYLQLSSLRSEDTAVYFCARLISTYWGQGTTLTVSS VL: DITMTQSPSSIYASLGERVTITCKASQDINSYLTWFQQKPGKSPKILIYLVNRLVDGVPSRFSGSGSGQDYALTISSLEYEDMGIYYCLQYDDFPYTFGGGTKLEIK
–	binds	–	JE12 murine monoclonal antibody (antibody, V domains shown, Mouse hybridoma IgG; heavy chain amplified with primer MHCG1, kappa light chain) VH: EVQLQQSGPELVKPGASVKMSCKASGYRFTSYVMHWVKQKSGQGLEWIGYINPYNDGAKYNEKFKGKATLTSDKSSSTAYMELSSLTSEDSAVYYCARLSSDYWGQGTTLTVSS VL: DVLMTQNPLSLPVSLGDQASISCRSSQSIEHINGNTYLEWYLQKPGQSPKFLIYKVSNRFSGVPDRFSGSGSGTDFTLRISRVEAEDLGIYYCFQGSHVPFTFGGGTKLEIK
